Data on one substance can be found in article doi:10.1101/2025.01.23.634444.

The assay deals with VraS-H6x (recombinant full-length histidine kinase VraS of Staphylococcus aureus with C-terminal H6x tag) (Staphylococcus aureus USA300-TCH1516). Nature of the assay: SEC. Background: Size exclusion chromatography separates by hydrodynamic size, large species first.

Sequence of VraS-H6x (recombinant full-length histidine kinase VraS of Staphylococcus aureus with C-terminal H6x tag) (enzyme) (Q5HEN9 whole entry): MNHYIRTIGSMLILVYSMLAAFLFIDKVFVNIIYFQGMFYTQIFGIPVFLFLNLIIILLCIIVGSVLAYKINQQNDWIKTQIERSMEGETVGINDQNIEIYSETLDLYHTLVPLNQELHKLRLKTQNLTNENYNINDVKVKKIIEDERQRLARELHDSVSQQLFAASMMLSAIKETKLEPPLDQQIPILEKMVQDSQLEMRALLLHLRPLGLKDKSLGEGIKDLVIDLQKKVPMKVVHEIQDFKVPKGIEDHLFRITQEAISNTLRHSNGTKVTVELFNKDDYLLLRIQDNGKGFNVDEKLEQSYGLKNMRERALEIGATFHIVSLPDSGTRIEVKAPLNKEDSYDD

On to “VraS-H6x (recombinant full-length histidine kinase VraS of Staphylococcus aureus with C-terminal H6x tag) (enzyme)”, for which the stoichiometry N turned out to be 2.

As usually defined, the stoichiometry N is the number of molecules, sites or subunits per partner or assembly.
